Laboratory results as given in publication PMC9531947, “Targeting A-kinase anchoring protein 12 phosphorylation in hepatic stellate cells regulates liver injury and fibrosis in mouse models” (eLife, 2022).

Biological target: T1, AKAP12 with its five activation-responsive phospho-sites deleted by CRISPR-directed HDR, human HSCs (human (endogenous locus in primary …, UniProt Q02952-1 1-1782, deletion of the five phospho-sites T675, S676, S678, S687, S688 (PDEL; limits …)
T1 construct: human AKAP12 with the region of the phospho-sites T675, S676, S678, S687, S688 deleted; The transfected cells are a mixture of edited and unedited cells; the co-precipitate with the AKAP12 antibody holds both forms; also called CRISPR-edited AKAP12; PDEL (human); source: in cell extract and fixed cells
Assay: co-IP; extracts of primary human HSCs (cultured 0, 3 or 6 days; WT or CRISPR-edited HDR cells; negative control or Prkca siRNA A or B); AKAP12-HSP47 co-immunoprecipitation and western blot
Details: partners not purified

T1 sequence (Q02952 other isoform, or with tags, fused parts or gaps with the stated changes): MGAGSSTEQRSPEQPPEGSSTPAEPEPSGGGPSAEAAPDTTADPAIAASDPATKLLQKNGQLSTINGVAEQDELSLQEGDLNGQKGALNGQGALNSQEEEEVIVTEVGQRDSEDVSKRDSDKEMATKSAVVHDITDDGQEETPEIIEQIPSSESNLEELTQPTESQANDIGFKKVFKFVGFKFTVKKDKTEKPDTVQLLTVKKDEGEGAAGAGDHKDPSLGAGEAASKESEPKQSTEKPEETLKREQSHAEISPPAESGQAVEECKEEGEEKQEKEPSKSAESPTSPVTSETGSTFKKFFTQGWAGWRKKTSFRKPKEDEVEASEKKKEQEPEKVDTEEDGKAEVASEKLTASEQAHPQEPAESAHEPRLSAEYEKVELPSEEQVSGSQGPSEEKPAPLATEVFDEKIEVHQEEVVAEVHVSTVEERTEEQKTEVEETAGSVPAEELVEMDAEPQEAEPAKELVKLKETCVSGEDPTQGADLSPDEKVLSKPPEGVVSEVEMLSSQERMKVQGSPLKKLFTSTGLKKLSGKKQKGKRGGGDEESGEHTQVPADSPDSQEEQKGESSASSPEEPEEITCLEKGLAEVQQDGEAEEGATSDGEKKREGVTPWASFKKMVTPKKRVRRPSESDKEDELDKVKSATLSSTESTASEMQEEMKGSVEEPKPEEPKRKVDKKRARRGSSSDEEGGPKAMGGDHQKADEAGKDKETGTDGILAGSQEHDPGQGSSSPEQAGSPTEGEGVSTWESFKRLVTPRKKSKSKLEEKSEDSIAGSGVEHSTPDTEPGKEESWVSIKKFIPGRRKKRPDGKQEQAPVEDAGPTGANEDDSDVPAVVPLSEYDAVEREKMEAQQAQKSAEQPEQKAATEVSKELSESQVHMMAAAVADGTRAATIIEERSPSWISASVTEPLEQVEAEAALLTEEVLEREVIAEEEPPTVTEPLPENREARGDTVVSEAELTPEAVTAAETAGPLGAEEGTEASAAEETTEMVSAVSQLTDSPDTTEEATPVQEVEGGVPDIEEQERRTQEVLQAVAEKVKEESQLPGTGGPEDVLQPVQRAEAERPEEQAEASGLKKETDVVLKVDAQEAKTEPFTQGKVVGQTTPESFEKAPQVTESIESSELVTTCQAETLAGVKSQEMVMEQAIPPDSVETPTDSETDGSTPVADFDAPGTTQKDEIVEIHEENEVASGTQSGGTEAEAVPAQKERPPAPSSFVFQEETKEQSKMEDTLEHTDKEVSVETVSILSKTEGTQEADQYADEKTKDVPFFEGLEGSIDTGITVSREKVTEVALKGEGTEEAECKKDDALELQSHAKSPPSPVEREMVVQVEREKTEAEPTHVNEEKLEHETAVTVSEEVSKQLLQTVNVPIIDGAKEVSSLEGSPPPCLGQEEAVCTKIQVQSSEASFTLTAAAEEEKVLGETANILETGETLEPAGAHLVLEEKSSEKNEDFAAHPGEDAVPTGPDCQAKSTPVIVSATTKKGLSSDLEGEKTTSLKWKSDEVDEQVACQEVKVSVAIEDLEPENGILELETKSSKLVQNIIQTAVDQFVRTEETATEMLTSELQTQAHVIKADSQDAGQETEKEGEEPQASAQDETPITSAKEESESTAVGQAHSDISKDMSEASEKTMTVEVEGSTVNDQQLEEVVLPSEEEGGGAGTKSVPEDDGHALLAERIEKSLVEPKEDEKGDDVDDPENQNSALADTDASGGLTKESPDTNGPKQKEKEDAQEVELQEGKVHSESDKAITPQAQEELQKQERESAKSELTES

B1: heat-shock protein 47 (HSP47), human, endogenous (natural protein, UniProt P50454 19-418, looked up)
chain: AEVKKPAAAAAPGTAEKLSPKAATLAERSAGLAFSLYQAMAKDQAVENILVSPVVVASSLGLVSLGGKATTASQAKAVLSAEQLRDEEVHAGLGELLRSLSNSTARNVTWKLGSRLYGPSSVSFADDFVRSSKQHYNCEHSKINFRDKRSALQSINEWAAQTTDGKLPEVTKDVERTDGALLVNAMFFKPHWDEKFHHKMVDNRGFMVTRSYTVGVMMMHRTGLYNYYDDEKEKLQIVEMPLAHKLSSLIILMPHHVEPLERLEKLLTKEQLKIWMGKMQKKAVAISLPKGVVEVTHDLQKHLAGLGLTEAIDKNKADLSRMSGKKDLYLASVFHATAFELDTDGNPFDQDIYGREELRSPKLFYADHPFIFLVRDTQSGSLLFIGRLVRPKGDKMRDEL
notes: heat-shock protein 47 (HSP47), ER-resident collagen chaperone, human, endogenous in primary HSCs and liver tissue; source: endogenous, primary human HSC extracts and fixed cells; human liver tissue array
  fold change of the AKAP12-HSP47 co-immunoprecipitate against WT cells: 2.5 fold
